This data set concerns HEK293T. In words: median enrichment of reporter reads in eGFP-reduced (low/intermediate) vs eGFP-high sorted cells (eGFP-extension fusion abundance) (ratio); higher = stronger loss of eGFP-fusion protein abundance (more destabilising extension).
Turning to GGGGGGGG [Gly08], the median enrichment came out at 1.64.
The value for “QLRTLPFFPLSSLPLPFLPIYPFPSSKSTQGEENKMTTQDLVAKILHSKSSFV [FGF12]” was 4.18; that for “QAASWRFEDAAFGLDEFQILLACFLILICLYTYTLCTKLFLIHGLLNPQMWSPWIRKARCTLNDK [B2M]” was 11.1; that for LLRPGALGARP [APOBR] was 9.86.
For “FGHSRTGERQLYFSLGQLQRVGQALMGSDCQSDAVGPRQRKAGRRGARTFSPHCPFPFSGEHRRLLTPTSCEAVAYGVQRSWS [C16orf58]”, the median enrichment came out at 4.42.
The value for SVCAGDQINRLGCAK [NOSIP] was 1.17.
The value for LTSQST [ANGPT2] was 0.829; that for SNIYLK [TEX12] was 0.685; that for LEIEKKKRISTQVFFFRNEDKI [ZNF24] was 2.65.
The value for “WAPSCLSRDPGTPPARTLGLSLPRAPPASVDWRVVLPLPRNQPQPR [SLC9A3R2]” was 18.7; that for KTAPPTSVQAGRSP [NCAPD3] was 7.59; that for “WEDRPAASWSREASVIAHTQFRFPPLYRQEVNLPGAEHPPKESPLNNTPPPRQECPNPNDPSFPNE [EDN3]” was 0.582.
Take EHH [SPRR2G]: the median enrichment turned out to be 0.297.
For “RRVQRTCSSLGEEAPLKNSPPGTQLQPSGQAAGRRQRQREETLALTPSRVVIFGFAHHPGLPDGTLL [C12orf49]”, the median enrichment was 11.7.
Then RCCCHGGLGQRGERSVLEA [OBSCN], with 11.1; and WVAPPSWGEVPSRLRRRGARGRS [PHLDB3], with 16.2; and WKGRAQQCK [IRX2], with 0.459.
The value for CPADTLPPPAPSTLSWAPPYLNL [NGF] was 0.552; that for WMQLVCHSI [SERPINB4] was 10.7.
As to “KTNKMRSSLWSFNSLMQIKTQTSLQALAYYSCIKNFGWGDLGA [MTRNR2L7]”, the median enrichment stood at 7.22.
The value for “LMPSTAADLWLDLGKGSIVLGKSTRSCKLGIHS [AGBL4]” was 8.11; that for “RGTLRSPKTSSCWGPHEGTSTLWGVARKRQALQLGDPIWKRDSDLPTSSSSFSTKAPVDSREVVKIFFSPIFLPASGDTAAVT [PGPEP1]” was 2.83.
In the case of WVEKKKKIKKQNKTHAPKK [NPIPB6], the median enrichment came out at 1.29.
For the substance YVNV [CLEC2B], the median enrichment worked out at 0.896.
In the case of YLEYIFV [CEP192], the median enrichment worked out at 4.56.
Consider EKHLKC [FAN1], for which the median enrichment worked out at 0.297.
The value for PPP [Pro03] was 0.305; that for QFCPPVTPVSGTRNPQHALMLCF [DNMT1] was 4.79; that for “QRTTEHLVSQNGLTTVSTTYSQMSISTSVELK [CYLC1]” was 1.57.
As to YVLIGLPAGCDSKA [CBX2], the median enrichment was 14.
Then WGPAWHPVTPPQCLSWP [CSHL1], with 7.99; and QTLCALCVRPVPAS [USP10], with 7.74.
Take QELSERCSIPFPHGKAK [ASXL3]: the median enrichment turned out to be 0.227.
On to CAQKS [LCE6A], for which the median enrichment came to 0.549.
With “LTSDRRSSLSSLSGSKMTRANGTKFESCQVNTWVLSMVTSICFVMCVLFQPEWEMLIQLLQAAQWGWWL [CFH]”, the median enrichment was 6.21.
As to “YSASSNLVFSKKNIYYLFLACHFNSSRDFTAGIF [RBM48]”, the median enrichment worked out at 41.8.
For the substance WGSVQGLSH [CST5], the median enrichment was determined as 0.711.
Then KKKKKKRRKKLL [CCNT1], with 0.26; and “QVTGNLSHLPFSSGTTLHKCVPRGSPFLSSSTENAARSSYPSSRGPAAMLYAPEGTLVPRKERKKRDGLWLHFLGP [VAMP8]”, with 7.27; and “QSTLTYFQKYNFRYHANFMTSKGCCYNVLTER [TDGF1]”, with 6.46.
As to YGWWQPGFWPRAPPPD [PHC2], the median enrichment was 2.07.
Take “YLARPDPLGPFFFADNHCPAASGTSGSQGTQSSLLAVDFPLLLEPPIKEIQRDSCRPEAEHTFMAGALRGVLDPAPGDTIHFY [PLOD1]”: the median enrichment was 9.08.
The value for RPSTVPGP [HYKK] was 0.522.
The value for RPSTKGPPSWCSITSFLKGISFFTTLS [FANCE] was 13.8; that for QIRI [TADA1] was 0.507; that for “LGPVAGRPAPAPPPPTGVPAHSCGKGGEGRRARPEQGAGGRAQYLTRAAVLINVPMAGPRSEPASSATVTFSLRDGGGGSLSR [DUSP9]” was 2.08.
Then TTTTTTTTT [Thr09], with 0.552; and WGTKPRRIPPQ [CA10], with 0.682.
Turning to SPQGRAATRRDMPGRGQDKMQTFFFF [APOL1], the median enrichment is 1.16.
In the case of SEMPAALPCQR [CUEDC1], the median enrichment was found to be 1.21.
Turning to SLREAC [ZNF672], the median enrichment stood at 0.708.
The value for STRRPSPQKP [ERBB2] was 0.591.
On to RRRRRRRR [Arg08], for which the median enrichment is 1.49.
As to SVGTAQWRRGYSPG [HTR3A], the median enrichment worked out at 28.
The value for YVCCLPSPSGHTLLYHTTGLDSGWRQIDTV [LIG3] was 5.91; that for KPSEFSL [CD163] was 0.535.
Then LPPLSPECNKHQIPCVK [POLR2I], with 2.23; and “ELQQKNLHCYIRYRYKMQKKHQEFCLLFYFIFKLQEVFSSWDNLVLLLSIICQFLCILNKINIELK [WDR49]”, with 2.64; and “WDRAGDEARPWTLHPAIETGLRRKEDPGQDPGRLATPPTPRTYSR [NUPR1]”, with 5.32.
For YDGR [ZNF772], the median enrichment is 0.299.
With QSCSIHIGLMD [ZCCHC10], the median enrichment stood at 0.408.
On to “RAKPDGQHRHRHTPQGPTLLSFTVPWHIGERIYPSPGSPGHSVLSKTRMWYQLWKRKVSCQQYLLPSRQPSQVRHLLRSHREP [SPSB4]”, for which the median enrichment amounted to 7.24.
As to LSGAQE [HELLS], the median enrichment is 0.562.
On to CGVSPGLMVCLL [APOBEC3F], for which the median enrichment amounted to 12.2.
Then CLQGSKLQR [OR7A5], with 3.17.
The value for STL [PGRMC2] was 0.374.
For the substance “RPETECQPKESSCKTVIYCEYLHHMGSLMVNIFLQSC [TXK]”, the median enrichment was 12.5.
For PPPPPPPP [Pro08], the median enrichment came out at 1.83.
Then SDASTGPSLFCPQP [HSPB8], with 0.471.
As to LPNFTSSGESLTLNQRPSTALAPQTSP [ABCB5], the median enrichment came to 0.355.
Then LARAPRGHLGRPREAEGHGVGGSRRVPASMVPALDLQLP, with 5.4; and EYKLS [UBA6], with 0.363.
SKTNTFYLWEAVPRFQPEL [ZBTB21]: the median enrichment came to 11.3.
The value for “QLGPAWKASAPCTHTDRNFRDCGVETGAQALQRVALKL [RAB36]” was 7.77; that for SGIRLPGNSGTVALADHLQHPAS [SLC2A10] was 0.633.
With “EGLPFPKPRVMSNCNQAQNQRPGCEIHTSLELVVSSWPQQLFPVLTG [PHF11]”, the median enrichment was 7.37.
Then ETSGFSSQTF [ELP5], with 0.462.
With KKTSSR [LGALS2], the median enrichment was found to be 0.594.
Take “KGPPRAQGPGAPRGWGQTKTRQRGERRERAGAGPLGAELGASGGRRLMFYKL [IER5L]”: the median enrichment came to 40.8.
In the case of HHHHHHHH [His08], the median enrichment was found to be 0.421.
Take YYCTELP [ADAM18]: the median enrichment was 4.78.
The value for WRPAPARMGGGVERRTPIG [NSG2] was 3.66; that for LAGWDHPPAPQLHALP [INSYN2B] was 0.774.
Turning to “PVGKGGGLRGRGWMPRAPKPPFPFVSKGVRSELRKRASECVSLEGLGALWCYHLETCLMPPCLPMEDRLQELGPCGNLACFGG [MTA2]”, the median enrichment came to 6.97.
The value for LIFFYQEG [PTEN] was 5.69; that for GCGLNCRLTK [MYO16] was 0.777; that for “RHSTRPPGLLGPPTPTALTAFPIAPGSSPPLGGTVKGSSLTRRLLLPLGSQLPPQESLLGRTLRTPSLHPVVL [KLC4]” was 9.71.
The value for YPSQGCSSVPSRRMWQGRAGSE [SERPINA4] was 0.599.
The value for QCL [ADGRG6] was 0.557; that for SCPPRCSQGNLAPRS [ZIC4] was 0.982.
“QWRGEGRLGALGGWEMLASKRLTGREAGTCPQHKRQVYPGSL [BTBD18]”: the median enrichment is 8.86.
Consider CVSYSSSMLGIPTAATMILVPERAMLLFQLV [MTMR8], for which the median enrichment came out at 23.9.
Regarding RGFRHCIPELL [PPM1M], the median enrichment came out at 1.19.
Then WRPGRRGPSSGG [Degron KLHDC2], with 10.7.
The value for “GGRACTGATQPGLGAASPQPPRAKNLFIKECFGTL [LMNA]” was 17.9; that for QSWWPQPLASDTLYLKNNCAL [CALB1] was 5.97; that for EVDV [PRKCB] was 0.313.
As for SAHSPLSQDMDLELRMGLS [IMP4], the median enrichment was determined as 0.513.
The value for LLLLLLL [Leu07] was 12.7; that for YDSPGLKLGSRPAR [PTGDS] was 3.48.
Then “QDSQLHRRLLPGLLLGRPPACPPCVSTPPARLPAGPSTPCVHTTSNLIGADVFIFLEFLFML [DDA1]”, with 7.88.
The value for WSSSSNSICKEHFSLKTCIWIIIITTF [CCDC148] was 3.42.
Turning to “SGWLSLPFSPSLSALGSVSTAGPKVKVLPLPEASWQGLSWLEVASLVPVLTPRPQRSCLPCCLSPPLCLCLRCVSHSEPPCFC [CCDC97]”, the median enrichment turned out to be 5.33.
Then QTGWPGPNP [EMILIN3], with 0.352.
In the case of SFFFPSAS [KAT2B], the median enrichment stood at 2.2.
For the substance YRDLQRPGQK [PEG10], the median enrichment was determined as 12.
The value for “YRNSEVQPLENNIQEGHIDYKLMSCPICNSGS [FRRS1]” was 25.3; that for YVEGYKC [FIBIN] was 1.05; that for QSMF [TMEM196] was 0.507.
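Further: lentiviral eGFP-IRES-mCherry reporter pool sorted by FACS 96 h post-transduction, gated on mCherry-high cells, Illumina read counts normalized per million, median across four biological replicates.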
